{
  "source": "patent US20250313648A1",
  "about": "“Binders of Chondroitin Sulfate Proteoglycan (CSPG4) Polypeptides” (Regents of the University of Minnesota, priority 2021, published 2025)",
  "molecules": {"B1": {"name": "7H5A2: CSPG4-specific mouse monoclonal antibody, isotype IgG1; heavy chain variable SEQ ID NO:8, light chain variable SEQ ID NO:16 (antibody, V domains shown)", "VH": "QVQLQQSGAELVRPGSSVKISCKASGFAFSNYWMNWVKQRPGQGLEWIGQIFPGDGDTNYNGKFKGKATLTADKSSSTAYMQLISLTSEDSAVYFCVRESDWGRGTTLTVSS", "VL": "DIQMTQTTSSLSASLGDRVTISCSASQGINNYLNWYQQTPDGTVKLLIFYTSSLQSGVPSRFSGSGSGTDYSLTISNLEPEDIATYYCQQYSKLPFTFGSGTKLEIKR"}},
  "key": {"[1]": {"target": "T1, CSPG4 (Homo sapiens, UniProt Q6UVK1)", "T1 construct": "screening against CSPG4 wild type and knockout cell lysates via western blot and cell staining via immunofluorescence; endogenous in cells; host or cells: HEY, ES-2 and A2780 human ovarian cancer cell lines (parent/mock cells, with CSPG4-CRISPR knockouts as negative control)", "T1 sequence (Q6UVK1 30-2322)": "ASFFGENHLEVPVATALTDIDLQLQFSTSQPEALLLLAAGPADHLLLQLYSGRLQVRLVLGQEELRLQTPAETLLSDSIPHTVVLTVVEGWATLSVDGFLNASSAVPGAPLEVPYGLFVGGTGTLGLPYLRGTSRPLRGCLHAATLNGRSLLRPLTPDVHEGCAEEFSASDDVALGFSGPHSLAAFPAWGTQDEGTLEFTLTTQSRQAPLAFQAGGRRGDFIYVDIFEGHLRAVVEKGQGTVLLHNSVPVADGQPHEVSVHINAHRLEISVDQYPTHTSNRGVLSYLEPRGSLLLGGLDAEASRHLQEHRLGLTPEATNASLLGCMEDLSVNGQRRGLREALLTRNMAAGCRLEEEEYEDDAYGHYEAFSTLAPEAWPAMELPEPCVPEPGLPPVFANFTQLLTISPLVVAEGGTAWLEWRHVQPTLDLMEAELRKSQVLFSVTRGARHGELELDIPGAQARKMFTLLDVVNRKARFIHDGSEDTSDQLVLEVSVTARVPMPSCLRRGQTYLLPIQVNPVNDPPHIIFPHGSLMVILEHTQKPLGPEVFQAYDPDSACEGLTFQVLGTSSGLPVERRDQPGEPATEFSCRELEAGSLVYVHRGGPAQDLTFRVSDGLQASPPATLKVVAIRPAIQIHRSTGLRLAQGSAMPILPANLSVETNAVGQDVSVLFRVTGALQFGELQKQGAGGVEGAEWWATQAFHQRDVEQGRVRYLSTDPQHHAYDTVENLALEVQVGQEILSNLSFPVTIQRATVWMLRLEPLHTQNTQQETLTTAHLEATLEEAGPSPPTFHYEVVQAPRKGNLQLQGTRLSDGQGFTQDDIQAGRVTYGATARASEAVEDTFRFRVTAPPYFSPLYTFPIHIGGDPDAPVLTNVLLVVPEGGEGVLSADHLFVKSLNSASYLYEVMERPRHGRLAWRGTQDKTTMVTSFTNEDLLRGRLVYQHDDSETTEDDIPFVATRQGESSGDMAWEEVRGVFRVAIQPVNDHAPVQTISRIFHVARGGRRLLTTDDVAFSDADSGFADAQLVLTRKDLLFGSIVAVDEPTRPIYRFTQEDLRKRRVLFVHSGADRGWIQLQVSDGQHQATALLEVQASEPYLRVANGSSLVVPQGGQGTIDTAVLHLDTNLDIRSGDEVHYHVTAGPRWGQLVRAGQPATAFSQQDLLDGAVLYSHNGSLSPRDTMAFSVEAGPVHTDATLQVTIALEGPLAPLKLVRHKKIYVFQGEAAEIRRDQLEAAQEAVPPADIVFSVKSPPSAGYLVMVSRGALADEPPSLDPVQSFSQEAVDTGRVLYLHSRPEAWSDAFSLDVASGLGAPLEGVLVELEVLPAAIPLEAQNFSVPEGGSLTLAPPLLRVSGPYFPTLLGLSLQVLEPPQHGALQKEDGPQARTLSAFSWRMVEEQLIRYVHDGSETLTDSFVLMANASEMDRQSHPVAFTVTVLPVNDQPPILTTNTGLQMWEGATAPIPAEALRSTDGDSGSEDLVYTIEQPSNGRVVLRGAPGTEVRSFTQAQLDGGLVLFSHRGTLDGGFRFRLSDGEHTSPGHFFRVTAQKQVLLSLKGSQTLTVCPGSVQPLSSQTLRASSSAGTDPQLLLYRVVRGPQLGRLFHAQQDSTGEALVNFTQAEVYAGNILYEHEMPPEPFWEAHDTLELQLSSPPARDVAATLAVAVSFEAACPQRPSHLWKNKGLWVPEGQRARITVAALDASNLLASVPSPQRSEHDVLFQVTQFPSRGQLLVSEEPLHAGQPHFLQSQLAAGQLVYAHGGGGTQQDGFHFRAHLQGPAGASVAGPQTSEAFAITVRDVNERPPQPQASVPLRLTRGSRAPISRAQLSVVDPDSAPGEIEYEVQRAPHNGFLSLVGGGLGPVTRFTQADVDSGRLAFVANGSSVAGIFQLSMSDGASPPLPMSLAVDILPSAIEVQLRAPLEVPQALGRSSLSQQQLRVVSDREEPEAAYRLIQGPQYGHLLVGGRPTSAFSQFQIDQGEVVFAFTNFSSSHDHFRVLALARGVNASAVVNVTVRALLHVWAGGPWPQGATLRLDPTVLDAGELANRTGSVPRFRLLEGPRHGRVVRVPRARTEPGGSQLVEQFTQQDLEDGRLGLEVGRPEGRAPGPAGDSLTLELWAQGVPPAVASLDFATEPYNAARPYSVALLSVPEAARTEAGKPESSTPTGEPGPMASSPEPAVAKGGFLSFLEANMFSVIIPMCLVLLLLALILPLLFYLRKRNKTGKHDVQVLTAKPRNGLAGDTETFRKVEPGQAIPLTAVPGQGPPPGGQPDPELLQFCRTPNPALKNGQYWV", "assay": "Specificity of antibody by western blot of CSPG4 wild type and knockout cell lysates and immunofluorescence cell staining", "format": "binding", "conditions": "western blot of mock and CSPG4-CRISPR cell lines; immunofluorescence of HEY parent cells", "method": "FIGS. 1A-1D. Antibody 7H5A2 targets CSPG4. FIG. 1A) Amino acid sequence of recombinant protein target used to generate antibody 7H5A2 (SEQ ID NO:34). Black text denotes CSPG4 region (SEQ ID NO:33), the lighter gray text corresponds to human FC sequence for protein purification. […]) Western blot with CSPG4 antibodies 763.74 (FIG. 1B) and 7H5A2 (FIG. 1C). Cells are harvested in lysis buffer and 40 μg protein was loaded in each well from the indicated mock and CSPG4-CRISPR cell lines. Alpha-tubulin is included as a loading control. FIG. 1D) Immunofluorescence staining of HEY parent cells with antibody 7H5A2. Red bar=10 μm. Magnification 600×.\nWestern blot: Western blots were performed using standard methods as described previously by Yang, et al., Cancer Res. 69(19):7538-47 (2009). […]\nGeneration of novel CSPG4 antibody: CSPG4-specific mouse monoclonal antibody 7H5A2 was generated by Promab Biotechnologies Inc (Richmond, CA) by injection of a recombinant CSPG4 protein immunogen corresponding to aa 1538-2221 of the CSPG4 core protein extracellular domain, expressed and purified from a eukaryotic expression system (see FIG. 1A). The specificity of the antibody was determined by screening against CSPG4 wild type and knockout cell lysates via western blot and cell staining via immunofluorescence (see FIGS. 1B and 1C). […]"}, "[2]": {"system": "FAK activation and ZEB1 expression in EOC cells", "assay": "Western blot for pFAK, FAK and ZEB1 in EOC cells plated in 1% methylcellulose with antibody", "format": "cell-based, human", "conditions": "50 μg/ml antibody vs normal mouse IgG1, suspension culture 24 hours, all three cell lines", "method": "(§1) FIGS. 10A-10D. Anti-CSPG4 antibody 7H5A2 inhibits Zeb1 expression and FAK activation, cell invasion and spheroid formation. FIG. 10A) Western blot for pFAK, FAK, and ZEB1 in EOC cells plated in 1% methylcellulose in the presence of 50 μg/ml normal mouse IgG1 (nmIgG1) or anti-CSPG4 antibody 7H5A2 cultured in suspension for 24 hours. FIG. 10B) Invasion assay using HEY cells pre-incubated with control (nm IgG1) or anti-CSPG4 (763.74 and 7H5A2) antibodies at 50 μg/ml for 2 hours and then plated in invasion chambers in the presence of the antibody in the top chamber only for 24 hours. Bars represent the total number of invading cells counted in five random fields/well from duplicate wells, +/−S.D. P values determined by student's t-test with Welch's correction. n=6 from 3 separate experiments. FIG. 10C) Cell growth assay using EOC cells plated in the presence of the indicated antibodies at 50 μg/ml in 1% methylcellulose for 7 days (HEY) or 14 days (A2780 and ES-2). Cells were collected from methylcellulose culture at those time points, and re-plated overnight in normal growth media in tissue culture plates. The following day all cells were collected from each well and counted. P values determined by student's t-test with Welch's correction, comparing live cell numbers (determined by trypan blue exclusion) from each condition, n=4. […]"}, "[3]": {"system": "HEY cells", "assay": "Matrigel invasion assay with antibody pre-incubation", "format": "cell-based, human", "conditions": "50 μg/ml antibody, 2 hours pre-incubation, 24 hours, inhibition greater than with antibody 763.74", "method": "as §1"}, "[4]": {"system": "EOC cells (HEY, A2780, ES-2)", "assay": "Spheroid formation / cell growth assay in 1% methylcellulose with antibody", "format": "cell-based, human", "conditions": "CSPG4 expressing mock transfected EOC cells, 50 μg/ml antibody", "method": "as §1"}},
  "data": [
    {"molecule": "B1", "values": [
      {"measurement": "recognition of CSPG4 on the cell surface", "setting": "[1]", "value": "specifically recognizes CSPG4 on the cell surface"},
      {"measurement": "ZEB1 expression", "setting": "[2]", "value": "inhibited"},
      {"measurement": "activation of FAK", "setting": "[2]", "value": "inhibited"},
      {"measurement": "EOC invasion", "setting": "[3]", "value": "significantly inhibited"},
      {"measurement": "spheroid formation", "setting": "[4]; 7 days (HEY) or 14 days (A2780 and ES-2)", "value": "significantly inhibited"},
      {"measurement": "EOC cell survival", "setting": "[4]; live cell numbers by trypan blue exclusion", "value": "significantly inhibited"}
    ]}
  ]
}
